From paper doi:10.1101/2020.05.12.090472 (bioRxiv, 2020)
No end group written: not given here. *: point of attachment. Biotin = O=C1N[C@H]2[C@H](CS[C@H]2CCCCC(=O)*)N1

Target: Recombinant Cdk5/p25 complex (human Cdk5 and p25 with N-terminal GST-tags) (human, UniProt Q00535 1-292; Q15078 99-307)
Test: pull-down

Biotin-ARAFGIPVRCYS [biotin-conjugated Cdk5i peptide]: binds.
